Values of other authors in paper PMC9736027.

Biological target: Nrf2 (Homo sapiens) (UniProt Q16236)
UniProt Q16236, sequence (Q16236 whole entry): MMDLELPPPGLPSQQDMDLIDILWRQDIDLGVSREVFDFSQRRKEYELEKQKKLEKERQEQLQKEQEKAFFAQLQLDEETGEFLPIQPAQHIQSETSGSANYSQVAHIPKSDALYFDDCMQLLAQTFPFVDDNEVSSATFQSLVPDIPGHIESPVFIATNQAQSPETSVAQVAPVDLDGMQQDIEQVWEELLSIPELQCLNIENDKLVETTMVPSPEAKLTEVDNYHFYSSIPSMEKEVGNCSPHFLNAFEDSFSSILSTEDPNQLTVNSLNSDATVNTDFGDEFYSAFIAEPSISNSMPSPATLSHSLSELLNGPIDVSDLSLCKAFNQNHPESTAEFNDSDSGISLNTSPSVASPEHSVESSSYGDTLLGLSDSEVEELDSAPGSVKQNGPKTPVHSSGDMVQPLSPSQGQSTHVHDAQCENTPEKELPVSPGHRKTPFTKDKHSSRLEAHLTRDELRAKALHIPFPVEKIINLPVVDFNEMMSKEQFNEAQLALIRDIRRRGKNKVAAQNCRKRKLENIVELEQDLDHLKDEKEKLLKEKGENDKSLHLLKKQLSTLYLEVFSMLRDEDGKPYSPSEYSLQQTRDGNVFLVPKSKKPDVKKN

Kd: 20 nM
Substance: Keap1 (from UniProt Q14145)
